Values of other authors as cited in PMC6359047.

Molecular target: MT1-MMP (Homo sapiens) (UniProt P50281)

Chain of TIMP-1 (P01033 24-207): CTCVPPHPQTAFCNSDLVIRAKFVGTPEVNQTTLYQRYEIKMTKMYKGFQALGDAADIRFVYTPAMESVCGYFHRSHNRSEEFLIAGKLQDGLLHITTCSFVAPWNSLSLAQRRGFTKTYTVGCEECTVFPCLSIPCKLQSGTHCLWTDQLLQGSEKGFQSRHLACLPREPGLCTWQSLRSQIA

- Ki: 178 nM
Substance: TIMP-1 (from UniProt P01033)
